Reference: patent publication US20230391832A1, “CO[…]-BINDING POLYPEPTIDES AND METHODS OF USING THE SAME” (Isolere Bio, Inc., priority 2022, published 2023)

Columns and labels:
[1] = system: AAV8 capsids; assay: ELISA cross-reactivity, AAV8 (FIG. 3C); assay type: binding
Source text: (§1) The control sequence (i.e. the human polycystic kidney domain 2, which is known to bind to AAV9 capsids) is labeled “C” in each graph.
(§2) Seven of the variants of Table C were screened for cross-reactivity to AAV2, AAV5, and AAV8.

[2] = system: AAV9 capsids; details: cited from earlier work
[3] = system: AAV9 full capsids; assay: pH dependence of binding by ELISA (acidic vs neutral elution); details: purified polypeptide 1 μM; citric acid pH 3, 4 or 5 vs TBS pH 7.2; FIG. 4
Experimental: The pH dependence of binding of the polypeptides of Table C was evaluated by ELISA. Initially, the bacterial lysates of cultures expressing the polypeptides of Table C were incubated in a citric acid solution (pH 4.0) containing AAV9 capsids for 30 minutes. Subsequently, the solution was washed in Tris-Buffered Saline (TBS), which contained 0.05% TWEEN® 20, at neutral pH.
The five polypeptides were expressed and purified via a C-terminal 6X-His tag. The purified polypeptides (1 μM) were incubated with an ELISA plate that was coated with AAV9 full capsids. The polypeptides were eluted from the ELISA plate with a citric acid solution at pH 3, 4, or 5 (acidic elution) or in the TBS solution described above at pH 7.2 (neutral elution). The ELISA signal from the protein that was still bound to the AAV9 capsid was measured. The post elution % ligand remaining bound to AAV9 was calculated by dividing the signal after pH 3, 4, or 5 incubation by the signal after pH 7.2 incubation, and multiplying by 100.

[4] = system: AAV5 capsids; assay: ELISA cross-reactivity, AAV5 (FIG. 3B); assay type: binding
Source text: as §1, §2

[5] = system: AAV2 capsids; assay: ELISA cross-reactivity, AAV2 (FIG. 3A); assay type: binding
Source text: as §1, §2

[6] = system: AAV full capsids vs AAV empty capsids; details: cited from earlier work

B1: PKD2 control protein: N-terminal His-tagged polycystic kidney domain 2 (PKD2 domain) from the AAV receptor, known to bind AAV9 capsids (protein)
chain: IAIVSPQFQEISLPTTSTVIDGSQSTDDDKIVQYHWEELKGPLREEKISEDTAILKLSKLVPGNYTFSLTVVDSDGATNSTTANLTVNKA
modifications: left off: small tags and cut ends
binding / cross-reactivity to AAV8 [1]: bound poorly or very weakly
affinity to AAV9 capsids (known) [2]: known affinity to AAV9 capsids
AAV9 binding signal after acidic elution compared to neutral elution [3]: reduced AAV9 binding signal
binding / cross-reactivity to AAV5 [4]: bound poorly or very weakly
binding / cross-reactivity to AAV2 [5]: cross reacted strongly
discrimination between full and empty capsids (known) [6]: no discrimination between full and empty capsids
